The results in this text go back to the RNAGym collection of RNA variant scans (doi:10.7554/elife.80360).

To fix the notation:
B1: Hairpin Ribozyme (parent)
chain: GUCCUCUUUCACGUGCGCGUGAAAGAGAGAAGUGAACCAGAGAAACACACGUUGUGGUAUAUUACCUGGUA

The data set covers variants of B1. Kind of data set: self-cleavage, relative activity (ratio to wild type); higher = more cleavage; co-transcriptional.
Consider A31U G54C, for which the self-cleavage was 0.119. The figure for A31U G40A is 0.117. Take A31C G57A: the self-cleavage is 0.107. For the variant A31C G57U, the self-cleavage was 0.0476.

In the case of A31C G57C, the self-cleavage turned out to be 0.189.

Regarding A31G U55A, the self-cleavage is 0.105. As for A31U A64G, the self-cleavage was 0.0407. The figure for A31C A47G is 0.108; for A30U G51A it is 0.104.

On to A30U A41G, for which the self-cleavage was determined as 0.106.

With A30U U53C, the self-cleavage was 0.041. To A31U A41C belongs 0.154; to A31U C38G, 0. The figure for A30U G40C is 0.13. The figure for A31U G69A is 0.182; for A31G C37G it is 0.162. In the case of A31G C37A, the self-cleavage was 0.158. A30U A47C: the self-cleavage is 0.0639. The figure for A30U G69A is 0.146. The figure for A30U G69U is 0.149; for A31G A36U it is 0.306; for A31G A36C it is 0.363. Take A31C U58A: the self-cleavage came out at 0.171.

For A31C U58C, the self-cleavage was 0.247. In the case of A31C U58G, the self-cleavage stood at 0.131. To A31G A45U belongs 0.236; to A31G A45C, 0.241. On to A31G C48A, for which the self-cleavage worked out at 0.164. The figure for A31G G69A is 0.178; for A31G G69U it is 0.258. The figure for A31U G51C is 0.15. To A31G A71U belongs 0.396; to A31C A71C, 0.202; to A31C A71G, 0.212. As to A31G U60C, the self-cleavage amounted to 0.836. To A31G G34A belongs 1.12.

Take A31U G42C: the self-cleavage worked out at 0.0816. Regarding A31G A59C, the self-cleavage stood at 0.173.

For the variant A30U A43G, the self-cleavage came out at 0.108.

As to A30U A64U, the self-cleavage was found to be 0.13. Take A30U G42A: the self-cleavage stood at 0.11. The figure for A31U U58C is 0; for A31C A64U it is 0.11. As for A30U C48A, the self-cleavage came to 0.209. For A30U C48G, the self-cleavage amounted to 0.118. The figure for A30U A44U is 0.16; for A31C C66U it is 0.225.

Turning to A30U U60A, the self-cleavage was 0.346. To A31C U55G belongs 0.1.

As to A31G C38U, the self-cleavage was found to be 0.272. To A31G C38G belongs 0.0773; to A31C G32C, 0.228; to A31G C65U, 0.252. To A31C A59U belongs 0.108; to A30U G54U, 0.165; to A30U G54A, 0.137. With A30U A49C, the self-cleavage is 0.111. To A31C G51A belongs 0.179. The figure for A31U C48A is 0.166. For A31U A35C, the self-cleavage was 0.185.

As to A31U A35U, the self-cleavage stood at 0.162. The figure for A31G A64G is 0.284; for A31G A64C it is 0.0777; for A31U A47G it is 0.101. In the case of A31U G68A, the self-cleavage amounted to 0.157. Consider A30U U58A, for which the self-cleavage amounted to 0.115. As to A30U U70A, the self-cleavage is 0.0595. As to A30U U70C, the self-cleavage came to 0.123.

Take A31G A39C: the self-cleavage was determined as 0.253. For the variant A31G A39U, the self-cleavage was 0.105. A30U U33G: the self-cleavage worked out at 0.138. The figure for A31G C50U is 0.266; for A31G C50G it is 0.176; for A31C A49G it is 0.0512. With A31G U52C, the self-cleavage is 0.508.

For A31G U52G, the self-cleavage stood at 0.4. To A31G U52A belongs 0.764.

With A30U G68A, the self-cleavage came to 0.0299. In the case of A30U G68C, the self-cleavage amounted to 0.118.

In the case of A30U G68U, the self-cleavage was 0.207. Regarding A31G A44G, the self-cleavage was determined as 0.208. The figure for A31G A44U is 0.205; for A31G A61C it is 0.16. Consider A31G A61U, for which the self-cleavage was 0.159. To A31G G57U belongs 0.23; to A31G U67C, 0.118.

With A31C C50G, the self-cleavage stood at 0.0635.

As to A31C G69A, the self-cleavage was 0.0915. The figure for A31U A36G is 0.151; for A31U A36C it is 0.197. The figure for A31C U33G is 0.0823; for A31U U60A it is 0.0868; for A31C C46G it is 0.0917. The figure for A31C C46U is 0.187. Take A31C C46A: the self-cleavage stood at 0.0889. The figure for A31U U53G is 0.122; for A31U U53A it is 0.026; for A31G G56U it is 0.106. To A31G G56C belongs 0.164; to A30U A36U, 0.0371. To A30U A61U belongs 0.0778; to A30U A61C, 0.069; to A30U A39U, 0.0553. Regarding A30U A39G, the self-cleavage amounted to 0.0918. To A30U A39C belongs 0.111; to A31U A43C, 0.169. To A30U C50G belongs 0.157; to A31C U70G, 0.0868. To A31U C66A belongs 0.3; to A31U C66U, 0.0749. As to A31G G54C, the self-cleavage was determined as 0.276. As to A31G G32A, the self-cleavage worked out at 0.0999.

A31G G32C: the self-cleavage came out at 0.0299. On to A31G U70A, for which the self-cleavage was 0.509.

With A31C A39C, the self-cleavage came out at 0.173. To A30U C65U belongs 0.0165; to A30U C65G, 0.228; to A31C U62C, 0.0677. The figure for A31U A49C is 0.139; for A31U A49G it is 0.121.

Consider A31C U63A, for which the self-cleavage worked out at 0.162.

On to A30U G32C, for which the self-cleavage was determined as 0.132. To A31G A49U belongs 0.11.

For the variant A31U A59C, the self-cleavage came to 0.0285. As to A31U A59U, the self-cleavage turned out to be 0.201. The figure for A31G U33A is 0.165; for A31G U33C it is 0.0729.

Take A31C C65G: the self-cleavage stood at 0.116. On to A31G A35G, for which the self-cleavage worked out at 0.662.

On to A31G A35U, for which the self-cleavage is 0.378. The figure for A31U G34U is 0.167; for A30U U67G it is 0.176. A30U U67C: the self-cleavage stood at 0.0825. The figure for A30U U67A is 0.0771; for A30U A59G it is 0.187. The figure for A30U A59U is 0.0496. Regarding A30U G57C, the self-cleavage was found to be 0.0918. Take A31C G54A: the self-cleavage turned out to be 0.152. The figure for A31U A45U is 0.131; for A31U A45G it is 0.0267; for A31G U62A it is 0.127. In the case of A31C G40C, the self-cleavage came to 0.0931. To A30U G56A belongs 0.127. For A30U G56U, the self-cleavage was 0.149. With A30U U63A, the self-cleavage was 0.13. To A31U G57C belongs 0.155.

Regarding A31U G57U, the self-cleavage amounted to 0.216.

As to A31U G57A, the self-cleavage amounted to 0.169. With A31C G56U, the self-cleavage turned out to be 0.182.

For A31C G56C, the self-cleavage was 0.115. A30U A71U: the self-cleavage was 0.101.

Take A30U A71C: the self-cleavage was found to be 0.299. The figure for A31G G51U is 0.599. To A31C A36C belongs 0.123. The figure for A31C A36G is 0.124; for A31U U55G it is 0.089.

With A31C U60C, the self-cleavage turned out to be 0.188. The figure for A31C U67G is 0.0719; for A31U A39G it is 0.0984; for A30U A31C it is 0.288. For the variant A31G G40C, the self-cleavage stood at 0.247. A31G G40A: the self-cleavage amounted to 0.179. Consider A31G G40U, for which the self-cleavage turned out to be 0.168. The figure for A31U C37G is 0.237; for A31C A61C it is 0.194; for A31C A61U it is 0.0706. In the case of A31G U53G, the self-cleavage amounted to 0.495.
